Drawing on publication PMC7294093, “S-Glutathionylation of human inducible Hsp70 reveals a regulatory mechanism involving the C-terminal α-helical lid” (The Journal of Biological Chemistry, 2020), this text covers binding result and Kd for one molecule.

In general, Kd refers to a measure of binding affinity in units of concentration. Higher therefore signals lower affinity.

Where “and” joins values, the source holds several entries; their conditions need not be identical. Identical values can stand only once. Ends that are not written are not given here. * marks the point of attachment. FITC = O=C1OC2(c3ccc(O)cc3Oc3cc(O)ccc32)c2ccc(NC(=S)*)cc21

Common to all, as to conditions: both partners purified
In assay [1] the target is hHsp70-CSSSS (hHsp70 C267S/C306S/C574S/C603S) (human, UniProt P0DMV8 1-641, C267S | C306S | C574S | C603S). In words: fluorescence polarisation; steady state; 20 nM FAR with increasing hHsp70 or mutant; apo (no nucleotide); Buffer B; RT, 60 min; single site binding model. A general note: Polarisation of emitted light reports the rotation of a fluorescent probe.
Assay [2] concerns the target T1, WT hHsp70 (human HspA1A), full-length (residues 1–641) (human, UniProt P0DMV8 1-641).
T1 construct: The deglutathionylated sample (glutathionylated, then 10 mM DTT) carries no modification and is written as this molecule; the label in the row tells which sample it was; also called HspA1A/B; untreated control (-C); source: monomeric peak collected
The assay is described as above.

The target in assay [3] is hHsp70-CSSCC (hHsp70 C267S/C306S) (human, UniProt P0DMV8 1-641, C267S | C306S). Described as above.
Assay [4] deals with hHsp70-CSSAA (hHsp70 C267S/C306S/C574A/C603A) (human, UniProt P0DMV8 1-641, C267S | C306S | C574A | C603A). The assay is described as above.
Assay [5] has as its target hHsp70-CSSAS (hHsp70 C267S/C306S/C574A/C603S) (human, UniProt P0DMV8 1-641, C267S | C306S | C574A | C603S). The description is as above.
Assay [6] deals with hHsp70-CSSCA (hHsp70 C267S/C306S/C603A) (human, UniProt P0DMV8 1-641, C267S | C306S | C603A). In words: fluorescence polarisation; kinetic time course at RT; 20 nM FAR with 10 μM hHsp70 or mutant, apo or with ADP/ATP (1 mM; 0.5 mM ADP in Fig. 7C); 1 mM diamide with 1 mM GSH added at 60 min, 10 mM DTT at 120 min.
Assay [7] concerns the target hHsp70-CSSAC (hHsp70 C267S/C306S/C574A) (human, UniProt P0DMV8 1-641, C267S | C306S | C574A). The description is as above.
Assay [8] has as its target hHsp70 T204A (binds but does not hydrolyze ATP) (human, UniProt P0DMV8 1-641, T204A). Described as above.
Assay [9] addresses T1, WT hHsp70 (human HspA1A), full-length …. Nature of the assay: fluorescence polarisation; steady state; 20 nM FAR with increasing hHsp70 (control, glutathionylated or deglutathionylated); 0.5 mM ADP in Buffer B (50 mM Tris-HCl pH 7.5, 100 mM KCl, 5 mM MgCl2); RT, 60 min; single site binding model.

T1 sequence (P0DMV8 whole entry, the tested form may be a part): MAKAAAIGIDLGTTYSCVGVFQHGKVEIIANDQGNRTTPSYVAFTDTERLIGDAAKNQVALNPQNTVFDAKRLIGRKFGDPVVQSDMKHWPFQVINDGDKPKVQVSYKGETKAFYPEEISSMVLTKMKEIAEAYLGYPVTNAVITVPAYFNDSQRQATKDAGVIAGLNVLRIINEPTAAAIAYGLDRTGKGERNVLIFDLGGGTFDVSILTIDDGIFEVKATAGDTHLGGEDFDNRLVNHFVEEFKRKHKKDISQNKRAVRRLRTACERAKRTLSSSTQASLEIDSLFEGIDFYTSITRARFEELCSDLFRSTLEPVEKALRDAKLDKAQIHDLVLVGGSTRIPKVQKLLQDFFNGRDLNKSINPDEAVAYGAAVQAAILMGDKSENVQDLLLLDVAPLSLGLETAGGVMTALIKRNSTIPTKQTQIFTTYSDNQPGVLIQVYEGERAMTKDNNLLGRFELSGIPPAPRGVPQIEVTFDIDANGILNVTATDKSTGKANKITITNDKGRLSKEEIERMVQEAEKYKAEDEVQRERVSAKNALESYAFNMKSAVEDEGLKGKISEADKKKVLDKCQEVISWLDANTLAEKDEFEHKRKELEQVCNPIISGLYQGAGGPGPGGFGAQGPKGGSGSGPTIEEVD
Chain of hHsp70-CSSCA (hHsp70 C267S/C306S/C603A) (P0DMV8 whole entry C267S/C306S/C603A): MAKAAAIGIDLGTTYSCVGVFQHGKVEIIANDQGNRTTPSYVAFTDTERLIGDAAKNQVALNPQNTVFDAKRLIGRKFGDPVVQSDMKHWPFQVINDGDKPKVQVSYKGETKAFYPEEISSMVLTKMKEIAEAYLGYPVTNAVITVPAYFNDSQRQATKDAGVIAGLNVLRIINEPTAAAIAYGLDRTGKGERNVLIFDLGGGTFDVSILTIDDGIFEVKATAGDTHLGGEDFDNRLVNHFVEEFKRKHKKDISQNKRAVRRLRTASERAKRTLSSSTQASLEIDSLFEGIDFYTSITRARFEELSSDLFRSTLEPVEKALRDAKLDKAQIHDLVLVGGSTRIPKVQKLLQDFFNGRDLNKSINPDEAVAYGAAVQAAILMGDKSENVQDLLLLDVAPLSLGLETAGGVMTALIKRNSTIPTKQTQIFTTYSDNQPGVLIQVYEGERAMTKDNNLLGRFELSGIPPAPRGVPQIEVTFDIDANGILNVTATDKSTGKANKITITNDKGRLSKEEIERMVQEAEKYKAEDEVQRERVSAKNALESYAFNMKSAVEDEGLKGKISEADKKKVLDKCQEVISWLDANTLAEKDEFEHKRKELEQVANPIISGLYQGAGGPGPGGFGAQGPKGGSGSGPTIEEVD
Chain of hHsp70-CSSAA (hHsp70 C267S/C306S/C574A/C603A) (P0DMV8 whole entry C267S/C306S/C574A/C603A): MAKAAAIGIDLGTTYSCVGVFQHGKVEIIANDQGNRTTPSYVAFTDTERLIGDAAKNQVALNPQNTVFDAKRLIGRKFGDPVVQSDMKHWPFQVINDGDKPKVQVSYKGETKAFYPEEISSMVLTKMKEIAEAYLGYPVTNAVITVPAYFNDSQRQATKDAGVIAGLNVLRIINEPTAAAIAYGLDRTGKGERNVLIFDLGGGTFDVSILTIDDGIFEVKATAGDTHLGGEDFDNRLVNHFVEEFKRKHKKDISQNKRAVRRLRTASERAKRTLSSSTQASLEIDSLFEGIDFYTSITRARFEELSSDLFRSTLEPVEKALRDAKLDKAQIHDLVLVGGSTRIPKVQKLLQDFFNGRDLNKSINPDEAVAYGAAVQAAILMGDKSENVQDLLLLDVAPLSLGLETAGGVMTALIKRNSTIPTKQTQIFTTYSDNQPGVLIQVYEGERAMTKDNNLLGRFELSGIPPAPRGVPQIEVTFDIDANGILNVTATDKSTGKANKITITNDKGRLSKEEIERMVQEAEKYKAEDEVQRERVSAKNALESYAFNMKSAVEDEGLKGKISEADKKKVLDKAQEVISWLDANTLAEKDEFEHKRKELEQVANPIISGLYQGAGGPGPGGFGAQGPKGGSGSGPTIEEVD
Chain of hHsp70-CSSCC (hHsp70 C267S/C306S) (P0DMV8 whole entry C267S/C306S): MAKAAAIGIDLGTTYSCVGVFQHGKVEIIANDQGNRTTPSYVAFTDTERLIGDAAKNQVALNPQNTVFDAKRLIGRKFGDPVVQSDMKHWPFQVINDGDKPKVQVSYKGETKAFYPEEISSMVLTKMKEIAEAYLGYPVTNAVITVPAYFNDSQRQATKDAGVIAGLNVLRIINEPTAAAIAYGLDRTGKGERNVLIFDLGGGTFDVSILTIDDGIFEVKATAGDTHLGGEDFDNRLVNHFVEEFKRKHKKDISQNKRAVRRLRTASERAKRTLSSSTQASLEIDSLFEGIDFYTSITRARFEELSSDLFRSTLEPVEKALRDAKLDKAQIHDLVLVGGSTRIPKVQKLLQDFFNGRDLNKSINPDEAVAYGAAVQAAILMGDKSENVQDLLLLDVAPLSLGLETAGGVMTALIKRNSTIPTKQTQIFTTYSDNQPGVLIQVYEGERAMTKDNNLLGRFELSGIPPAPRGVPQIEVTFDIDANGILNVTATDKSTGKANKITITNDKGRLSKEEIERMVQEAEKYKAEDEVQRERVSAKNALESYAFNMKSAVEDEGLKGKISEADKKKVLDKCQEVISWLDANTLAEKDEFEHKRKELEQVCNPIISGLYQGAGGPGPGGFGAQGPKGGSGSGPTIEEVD
Chain of hHsp70-CSSAS (hHsp70 C267S/C306S/C574A/C603S) (P0DMV8 whole entry C267S/C306S/C574A/C603S): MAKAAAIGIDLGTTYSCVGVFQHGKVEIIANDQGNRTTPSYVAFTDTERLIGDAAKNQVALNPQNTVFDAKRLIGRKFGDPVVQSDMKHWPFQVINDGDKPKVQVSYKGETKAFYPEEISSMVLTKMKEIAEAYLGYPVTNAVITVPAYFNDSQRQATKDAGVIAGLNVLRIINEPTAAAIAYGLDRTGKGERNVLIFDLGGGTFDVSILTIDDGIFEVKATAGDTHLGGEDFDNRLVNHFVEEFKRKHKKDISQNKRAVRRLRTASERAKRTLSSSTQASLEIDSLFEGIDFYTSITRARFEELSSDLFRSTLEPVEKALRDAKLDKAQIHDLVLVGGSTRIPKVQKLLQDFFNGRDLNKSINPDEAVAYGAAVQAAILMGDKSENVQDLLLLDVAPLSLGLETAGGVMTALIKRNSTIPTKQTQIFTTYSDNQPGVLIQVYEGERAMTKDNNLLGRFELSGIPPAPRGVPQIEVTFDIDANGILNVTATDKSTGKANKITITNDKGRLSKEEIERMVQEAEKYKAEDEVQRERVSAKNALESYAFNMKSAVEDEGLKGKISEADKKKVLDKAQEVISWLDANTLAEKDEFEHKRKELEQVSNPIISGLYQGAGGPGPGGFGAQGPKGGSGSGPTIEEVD
Chain of hHsp70-CSSAC (hHsp70 C267S/C306S/C574A) (P0DMV8 whole entry C267S/C306S/C574A): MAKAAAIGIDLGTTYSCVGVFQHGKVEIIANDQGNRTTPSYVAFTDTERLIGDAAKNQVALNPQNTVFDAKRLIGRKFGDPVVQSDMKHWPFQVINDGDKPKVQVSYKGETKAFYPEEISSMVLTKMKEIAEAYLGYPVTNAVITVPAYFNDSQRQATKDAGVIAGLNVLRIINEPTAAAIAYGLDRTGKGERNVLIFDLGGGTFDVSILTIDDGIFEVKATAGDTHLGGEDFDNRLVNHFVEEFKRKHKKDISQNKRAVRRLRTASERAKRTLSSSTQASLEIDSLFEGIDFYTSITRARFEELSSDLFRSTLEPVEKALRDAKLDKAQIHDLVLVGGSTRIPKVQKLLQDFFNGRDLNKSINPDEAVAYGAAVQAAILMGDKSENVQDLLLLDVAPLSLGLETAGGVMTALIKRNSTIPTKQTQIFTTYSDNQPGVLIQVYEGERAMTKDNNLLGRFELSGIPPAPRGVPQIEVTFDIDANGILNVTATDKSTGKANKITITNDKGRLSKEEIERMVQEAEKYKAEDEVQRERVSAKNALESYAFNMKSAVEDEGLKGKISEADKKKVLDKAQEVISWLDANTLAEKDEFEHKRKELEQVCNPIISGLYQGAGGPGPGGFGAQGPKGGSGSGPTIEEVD
Chain of hHsp70 T204A (binds but does not hydrolyze ATP) (P0DMV8 whole entry T204A): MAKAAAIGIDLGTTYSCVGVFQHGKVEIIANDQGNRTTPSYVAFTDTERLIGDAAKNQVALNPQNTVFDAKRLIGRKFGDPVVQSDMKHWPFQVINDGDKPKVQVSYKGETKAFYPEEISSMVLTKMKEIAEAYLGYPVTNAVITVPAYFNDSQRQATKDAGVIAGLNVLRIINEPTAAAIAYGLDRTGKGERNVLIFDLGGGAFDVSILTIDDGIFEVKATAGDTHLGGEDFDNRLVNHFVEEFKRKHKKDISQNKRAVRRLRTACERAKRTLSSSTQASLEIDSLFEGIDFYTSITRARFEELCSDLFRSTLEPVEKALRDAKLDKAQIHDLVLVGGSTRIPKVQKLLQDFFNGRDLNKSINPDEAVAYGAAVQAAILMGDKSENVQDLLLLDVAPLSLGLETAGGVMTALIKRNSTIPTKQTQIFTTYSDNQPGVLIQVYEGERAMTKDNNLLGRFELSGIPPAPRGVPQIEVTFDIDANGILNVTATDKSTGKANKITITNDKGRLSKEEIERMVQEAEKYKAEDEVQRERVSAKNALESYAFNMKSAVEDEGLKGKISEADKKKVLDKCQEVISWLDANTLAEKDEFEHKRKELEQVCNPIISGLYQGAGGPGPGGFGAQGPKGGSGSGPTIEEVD

B1: FITC-labeled ALLLSAPRR (FAR) peptide (peptide)
peptide: {FITC}-ALLLSAPRR
notes: fluorescently labeled peptide substrate
Consider B1, for which the binding result in assay [1], in assay [6], in [7] and in assay [8] was “binds” in each case. In addition, the Kd was 1120 ± 120 nM in [2]; 1350 ± 230 nM in [3]; 1190 ± 210 nM in assay [4]; 1440 ± 540 nM in assay [5]; 1070 nM and 1200 nM in assay [9].
